Publication PMC7465815, “The CARF Protein MM_0565 Affects Transcription of the Casposon-Encoded cas1-solo Gene in Methanosarcina mazei Gö1” (Biomolecules, 2020)

Key:
[1] = target: T1, His6-MM_0565 (CARF-wHTH protein) (Methanosarcina mazei Gö1) (UniProt Q8PZC9); assay: EMSA; conditions: MST: 25 nM labelled protein in His-tag buffer (250 mM NaH2PO4, 1.5 M NaCl, pH 8) + 1 mg/mL BSA, 0.05% Tween20, DNA from annealing buffer (50 mM TES/KOH pH 7.6 …)
T1 sequence: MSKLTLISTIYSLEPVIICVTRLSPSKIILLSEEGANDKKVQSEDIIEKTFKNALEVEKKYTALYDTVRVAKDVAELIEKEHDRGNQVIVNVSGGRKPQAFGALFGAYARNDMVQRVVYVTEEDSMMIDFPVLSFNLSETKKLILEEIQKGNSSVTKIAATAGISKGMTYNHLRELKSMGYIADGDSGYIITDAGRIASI

[2] = target: T1, His6-MM_0565 (CARF-wHTH protein) (Methanosarcina mazei Gö1); assay: competition; conditions: MST: 25 nM labelled protein in His-tag buffer (250 mM NaH2PO4, 1.5 M NaCl, pH 8) + 1 mg/mL BSA, 0.05% Tween20, DNA from annealing buffer (50 mM TES/KOH pH 7.6 …)
[3] = target: T2, His6-MM_0565 (CARF-wHTH protein) (Methanosarcina mazei Gö1, UniProt Q8PZC9 1-200); assay: MST; MST: 25 nM labelled protein in His-tag buffer (250 mM NaH2PO4, 1.5 M NaCl, pH 8) + 1 mg/mL BSA, 0.05% Tween20, DNA from annealing buffer (50 mM TES/KOH pH 7.6); conditions: protein: recombinant, tags: N-terminal His6 (pET28a), chain copies: 2
T2 sequence: T1 sequence

[4] = target: the molecule itself; assay: SEC; purified His6-MM_0565 on an ENrich SEC 650 column; 50 mM TES buffer pH 7.6, 300 mM KCl; 0.5 mL/min; calibrated with a gel-filtration mass standard
[5] = target: the molecule itself; assay: SDS-PAGE and Western blot of cell extracts (dimer band kept under denaturing conditions); M. mazei cell extracts (750 µg), cells grown under standard conditions (38.5 mM NaCl) or with 500 mM NaCl; samples boiled 5 min at 95 °C, 12% SDS-PAGE; polyclonal antibodies against MM_0565

## AGGGCAAAAATTTCCGTTATTTGGCCAGAAAAGGCCTGAAATGAGCCCTTTTTCAGGGCTAAAATTCTTGCTGGAAAATTATCAAACCCTTTATAAATACAAGAAAAACTTCTCATACGCAGATATTCCGGTAACAGCAATCTACGCATTTTCT (double strand) [leader I-B PCR fragment]
[1]
  binding: binds
[2]
  binding: binds

## AGGGCAAAAATTTCCGTTATTTGGTCAGAAAAGGCCTGAAATGAGCCCTTTTTTGGGGCTAAAATTCTTGCTGGAAAATTATCAAACCCTTTATAAATACAAGAAAAAAAGGGTTTTTTTAGTGGTTTGGAAAC (double strand) [leader III-C PCR fragment]
[1]
  binding: binds

B1: MM_3250 (cas1-solo operon) promoter (dsDNA)
DNA 1: CCGCTCTTACTTATGTACAGAATTGAGTATAACTTTAAGTATAAGTTTGATGTATATTTTGTATATAATT
DNA 2: AATTATATACAAAATATACATCAAACTTATACTTAAAGTTATACTCAATTCTGTACATAAGTAAGAGCGG
[3]; blunt
  Kd: 1600 ± 400 nM

B2: His6-MM_0565 (CARF protein MM_0565 of Methanosarcina mazei Gö1 with N-terminal His6 tag) (natural protein, UniProt Q8PZC9 1-200, looked up)
chain: T1 sequence
notes: MM_0565 gene product of Methanosarcina mazei Gö1; N-terminal CARF domain and C-terminal winged helix-turn-helix domain; gene PCR-amplified (0.6 kbp fragment) and cloned into pET28a(+); approximately 22 kDa; Homodimer by size-exclusion chromatography; also called purified MM_0565; His6-tagged MM_0565; source: E. coli BL21-CodonPlus-RIL (plasmid pRS923, pET28a), purified (Ni-NTA agarose); not …
[4]
  stoichiometry N: 2

B3: MM_0565, endogenous in Methanosarcina mazei Gö1 (natural protein, UniProt Q8PZC9 1-200, looked up)
chain: T1 sequence
notes: MM_0565 gene product of Methanosarcina mazei Gö1, detected in cell extracts with polyclonal antibodies against MM_0565 as bands of 25 and 50 kDa; Both a monomer band and a dimer band were seen on the denaturing gel; also called dimeric MM_0565; source: endogenous, M. mazei Gö1 cell extracts
[5]
  stoichiometry N: 2

B4: MM_0565 promoter version 1 (wt) (dsDNA)
DNA 1: AACTAAATCCCTATATCGTAAAACATTTAACCAAACCCTACAATACATGACATCTAATGT
DNA 2: ACATTAGATGTCATGTATTGTAGGGTTTGGTTAAATGTTTTACGATATAGGGATTTAGTT
[3]; blunt
  Kd: 285 ± 56 nM

B5: conserved leader region 2 (3' fragment) (dsDNA)
DNA 1: CAAGAATTTTAGCCCTGAAAAAGGGCTCATTTCAGGCCTTTTCTGGCCAAATAACGGAAATTTTTGCCCT
DNA 2: AGGGCAAAAATTTCCGTTATTTGGCCAGAAAAGGCCTGAAATGAGCCCTTTTTCAGGGCTAAAATTCTTG
[3]
  binding result: no binding

B6: conserved leader region 1 (5' fragment, 70 nt) (dsDNA)
DNA 1: TTTTTCTTGTATTTATAAAGGGTTTGATAATTTTCCAGCAAGAATTTTAGCCCCAAAAAAGGGCTCATTT
DNA 2: AAATGAGCCCTTTTTTGGGGCTAAAATTCTTGCTGGAAAATTATCAAACCCTTTATAAATACAAGAAAAA
[3]; blunt
  Kd: 960 ± 350 nM

B7: cas8b promoter (CRISPR-Cas I-B operon) (dsDNA)
DNA 1: TCTATTTGCTTATTTTTATAATTATTTTTAGAAATGTATATATAATATGTTAACTATGAACCTTGATGGT
DNA 2: ACCATCAAGGTTCATAGTTAACATATTATATATACATTTCTAAAAATAATTATAAAAATAAGCAAATAGA
[3]; blunt
  binding result: no binding
